Laboratory results reported in the DeepSol protein solubility set.

assay: soluble on expression in E. coli; label from the status in PepcDB or PDB records

Sequence	soluble on expression in E. coli
MPSLSEFLRKRRARQRRLQAVPSNNKKKSNNNNIMSSTSSGKSRRAASLSSINNFEHLASVEKAGWLNKWTNYLKGYRQRWFVLDSNATLSYYRNPSEVGHTCRGSINLQEARVHTDKTTSCIVISGQSQTFHVKPQNEMDRQQWTNSLEYMRHKAITRAESEEDEDAQMAKTDSNRSDALILANRQMSGKLCDLRTAANMMNKQGDELMRALNGTVETDKNSLAERADLLKMTTSAVLQAAEEFVELSEQSAKRLNKIVAVEQKEKALLQEQLEALAKQHSSLERAASKCARGAAPVSVYSDQEDDEFHDAEEDLAMPCSNSNGPPATAGVHLTPTKRHIGAGDPSSSTCSDSGAVVVVGAHKGGRQRRTTVPERPNLPINLWSIMKNCIGKELSKIPMPVNFSEPISVLQRVTEDLEYANLLETGAKLSTLEQMCYVAAYAASNYSTTCHRTNKPFNPLLGETFEFDRMDDLGWRSVTEQVSHHPPAAAHHAEGNGWTMYQDFTMTSRFRGKYLSVIPIGFTHVVFPATKSHFSYRKITTTVHNIIVGKLWIDNHGDMEITNHETNEKCLLKFVPYSYFSREQPRKVYGIVRDAEGIPKYVVQGTWDKSIDMLKVSSWNGNHEKPKLEVDETSLKRIWTANPLPKNAEKMHNFTKLAIELNEPEEGVAPTDSRLRPDQRLMENGEWDEANRKKLEIEEKQRVVRRRREAEKELAMKKGDKYEEYEPTWFVRVQDESNGALIHQFKGGYWEAKEQQNWEKCPDIF	not soluble
MPNNISKSAIIKEGVIIGENVTIEDNVYIDYGCIIRDNVHIKKGSFIGARSILGEYLVDFYNDRINKKHPLIIGENALIRTENVIYGDTIIGDNFQTGHKVTIRENTKIGNNVKIGTLSDIQHHVYIGNYVNIHSNVFVGEKSIIKDFVWLFPHVVLTNDPTPPSNELLGVTIELFAVIAARSVVLPGIHINEDALVGAGAVVTKDVPKETVVVGNPAREICSIRKIKNKITGEQVYPWRYTFKRGMPWEETDYDTWIKNISIENLEHHHHHH	soluble
MAHHHHHHMGTLEAQTQGPGSMAIDPNSIGAVTEPMLFEWTDRDTLLYAIGVGAGTGDLAFTTENSHGIDQQVLPTYAVICCPAFGAAAKVGTFNPAALLHGSQGIRLHAPLPAAGKLSVVTEVADIQDKGEGKNAIVVLRGRGCDPESGSLVAETLTTLVLRGQGGFGGARGERPAAPEFPDRHPDARIDMPTREDQALIYRLSGDRNPLHSDPWFATQLAGFPKPILHGLCTYGVAGRALVAELGGGVAANITSIAARFTKPVFPGETLSTVIWRTEPGRAVFRTEVAGSDGAEARVVLDDGAVEYVAG	soluble
MLHAETEVIVEDEPPILNLSRYRDEDRIQMDPFGDDEEEDDGFMDGQPPDLEMNLPSKQRRVRTRKPMDTDGSIDDGDKEKKAMKIINPAAATPSKMFRVQGERVISKALAERQYHVKLFEDEVEMTENGDCYATVISGCLAYLLRKERIIELLTNETEIAMMYGDKKKKYKKKISSKNKENCQNFKLLSEKSVRKKKQKSTVPIFSREGGWLLDKPPRLPPLVPHKACFAFYVDGSKIMSIKDVSNDDLKPWSSTGGEQHFNDPVIKPNVRRHPVARLNGRLQSVKGDPRIAELHLTEYSAWLPRLLRLRKKIFYLSRDGQIYGNVLILYDYTCPGEIPPIVNLPHGNDYLRHAMVDPTDPHVSLDLDDPGSTPFEDEIVEGPRGGMFLRVKLAKLGWAHNKKLLLRYLVNEPELLSQSNCLNRRTPYLPPLIPTTGVFVYFVPANFVANQINHTGDGLSPWTVNPASEGPSPRVRSTRRAIVQDDNGQFQMAKDTAGGWHSSQLCLVETMSVLARCPRLRKRLIYIQRNNTITIGNVCYIYEYVRDGPVPCPYVKPPGTPGRGVGGSKWIDDQKKIDTSQDPSTSSAAPNDEEQFIDVEDLEVVEEEVIGHHNDSLDQIQLQHDQHQQQQHQLMQDVSIAQDAQGHLLDDDLLDMSQEDVLNNGYDLEFDDDPLTQQENPAPYFENPRQLETGHIYLTVRHKRVASTFEAVLEWIANTNVVEERGLLNYAKPGHPPIVRNSRAYAFFVAGTAIFPHDINRDDFSPWSHNGNAQNPTCYRTKVRKVGVICDELGSQFQVLHGSQGKQPKKSDGNRRSPKIPKSAYFL	not soluble
MFFCTILSFFDFGRYFMEKNQYEIYHENKKHTPNDFPYNTYLCSIPLDFKSVNLHWHNEVELIVIKKGQGLVNVNLVTYTVNAGDVVFVFPGQLHSISQKDYSIMEYENILFKSSLLKSSGYDLCNDKFIQPLLSGNLNIYPVINSNFDFHDSLYSLINEIDKLCDKRPYAYQLAVKSYLFQIFYLLISNCGLNQIKPISKKALEK	not soluble
